Measurements reported in PMC4540320, “A Newly-Identified Polymorphism in Rhesus Macaque Complement Factor H Modulates Binding Affinity for Meningococcal FHbp” (PLoS ONE, 2015).

B1: recombinant Factor H binding protein (FHbp) ID 1 (natural protein)
chain: CSSGGGGVAADIGAGLADALTAPLDHKDKGLQSLTLDQSVRKNEKLKLAAQGAEKTYGNGDSLNTGKLKNDKVSRFDFIRQIEVDGQLITLESGEFQVYKQSHSALTAFQTEQIQDSEHSGKMVAKRQFRIGDIAGEHTSFDKLPEGGRATYRGTAFGSDDAGGKLTYTIDFAAKQGNGKIEHLKSPELNVDLAAADIKPDGKRHAVISGSVLYNQAEKGSYSLGIFGGKAQEVAGSAEVKTVNGIRHIGLAAKQ
notes: also called meningococcal FHbp; source: recombinant, purified as described previously [14] with a second ion exchange chromatography step (HiTrap SP HP)

How the values were obtained:
[1] = molecular target: rhesus macaque serum Factor H, sequence type YS/YP (heterozygous) (rhesus macaque (endogenous in serum)); assay: SPR; Biacore X100 Plus, CM5 chip with immobilised goat anti-human FH; FH (~600 RU) captured from a 1:50 serum dilution; FHbp 3.16 to 316 nM in solution, single-cycle kinetics, 1:1 binding model
[2] = molecular target: rhesus macaque serum Factor H, sequence type HP/HP (H352 with P360, homozygous) (rhesus macaque (endogenous in serum)); assay: as above
[3] = molecular target: rhesus macaque serum Factor H, sequence type HP/YS (heterozygous) (rhesus macaque (endogenous in serum)); assay: as above
[4] = molecular target: rhesus macaque serum Factor H, sequence type HP/YP (heterozygous) (rhesus macaque (endogenous in serum)); assay: as above
[5] = molecular target: T1, human complement Factor H (human (endogenous in serum), UniProt P08603 19-1231); assay: as above; conditions: one partner purified
T1 construct: also called human FH; human serum FH; source: endogenous, human serum; also purified from the same subject

[6] = molecular target: T1, human complement Factor H; assay: SPR; as the serum capture assay, but with human FH purified from the same subject captured on immobilised goat anti-human FH; FHbp in solution, single-cycle kinetics, 1:1 binding model; conditions: both partners purified

T1 sequence (P08603 19-1231): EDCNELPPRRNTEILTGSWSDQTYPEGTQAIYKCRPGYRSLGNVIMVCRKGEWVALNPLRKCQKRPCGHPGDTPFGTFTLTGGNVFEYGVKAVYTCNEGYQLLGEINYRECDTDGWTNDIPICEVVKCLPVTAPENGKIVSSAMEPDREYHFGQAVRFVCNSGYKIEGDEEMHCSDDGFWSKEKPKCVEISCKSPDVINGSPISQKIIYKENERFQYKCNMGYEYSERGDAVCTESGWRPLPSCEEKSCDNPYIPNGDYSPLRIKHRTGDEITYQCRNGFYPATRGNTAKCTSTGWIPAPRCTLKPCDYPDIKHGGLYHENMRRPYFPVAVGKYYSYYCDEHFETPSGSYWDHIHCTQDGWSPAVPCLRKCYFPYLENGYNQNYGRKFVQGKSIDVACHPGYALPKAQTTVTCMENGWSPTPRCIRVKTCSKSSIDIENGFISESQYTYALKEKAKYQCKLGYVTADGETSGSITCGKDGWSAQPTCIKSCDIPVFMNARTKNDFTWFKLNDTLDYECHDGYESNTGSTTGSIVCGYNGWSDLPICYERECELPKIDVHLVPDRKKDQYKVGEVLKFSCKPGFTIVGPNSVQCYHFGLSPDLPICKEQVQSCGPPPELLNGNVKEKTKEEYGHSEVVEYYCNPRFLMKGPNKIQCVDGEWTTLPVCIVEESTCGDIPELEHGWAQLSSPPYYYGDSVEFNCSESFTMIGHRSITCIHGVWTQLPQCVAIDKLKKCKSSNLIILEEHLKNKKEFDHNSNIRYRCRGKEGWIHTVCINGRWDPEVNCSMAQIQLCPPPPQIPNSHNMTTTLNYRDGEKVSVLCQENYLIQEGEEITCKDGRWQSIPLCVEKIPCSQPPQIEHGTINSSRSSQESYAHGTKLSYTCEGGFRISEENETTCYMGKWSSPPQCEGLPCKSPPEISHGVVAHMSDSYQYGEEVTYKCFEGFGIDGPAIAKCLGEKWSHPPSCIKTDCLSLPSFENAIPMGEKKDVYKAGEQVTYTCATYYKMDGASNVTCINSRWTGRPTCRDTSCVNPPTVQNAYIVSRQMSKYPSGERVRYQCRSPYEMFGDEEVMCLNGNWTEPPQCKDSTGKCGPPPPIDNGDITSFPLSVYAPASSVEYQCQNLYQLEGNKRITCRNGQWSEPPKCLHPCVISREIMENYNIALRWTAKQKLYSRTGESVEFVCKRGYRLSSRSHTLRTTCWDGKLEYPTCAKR

Molecule	Kd [1] [nM]	kon [1] [M⁻¹ s⁻¹]	Kd [2] [nM]	kon [2] [M⁻¹ s⁻¹]	Kd [3] [nM]	kon [3] [M⁻¹ s⁻¹]	Kd [4] [nM]	kon [4] [M⁻¹ s⁻¹]	Kd [5] [nM]	kon [5] [M⁻¹ s⁻¹]	Kd [6] [nM]	kon [6] [M⁻¹ s⁻¹]
recombinant Factor H binding protein (FHbp) ID 1 (from UniProt Q9JXV4 20-274) (natural protein)	10.4	180000	100	180000	99.5	190000	18.2	180000	–	–	–	–
B1	–	–	–	–	–	–	–	–	19.8	190000	18.2	220000
